This assay addresses T1, human receptor tyrosine kinase AXL transcript variant 1 (human, UniProt P30530 26-894).
T1 construct: Overexpressed on RatI-AXL cl.2 and NIH3T3-AXL cl.7 fibroblasts (pLXSN-hAXL); endogenous on human cancer cell lines and HUVEC in the functional assays; also called hAXL; human AXL
T1 sequence: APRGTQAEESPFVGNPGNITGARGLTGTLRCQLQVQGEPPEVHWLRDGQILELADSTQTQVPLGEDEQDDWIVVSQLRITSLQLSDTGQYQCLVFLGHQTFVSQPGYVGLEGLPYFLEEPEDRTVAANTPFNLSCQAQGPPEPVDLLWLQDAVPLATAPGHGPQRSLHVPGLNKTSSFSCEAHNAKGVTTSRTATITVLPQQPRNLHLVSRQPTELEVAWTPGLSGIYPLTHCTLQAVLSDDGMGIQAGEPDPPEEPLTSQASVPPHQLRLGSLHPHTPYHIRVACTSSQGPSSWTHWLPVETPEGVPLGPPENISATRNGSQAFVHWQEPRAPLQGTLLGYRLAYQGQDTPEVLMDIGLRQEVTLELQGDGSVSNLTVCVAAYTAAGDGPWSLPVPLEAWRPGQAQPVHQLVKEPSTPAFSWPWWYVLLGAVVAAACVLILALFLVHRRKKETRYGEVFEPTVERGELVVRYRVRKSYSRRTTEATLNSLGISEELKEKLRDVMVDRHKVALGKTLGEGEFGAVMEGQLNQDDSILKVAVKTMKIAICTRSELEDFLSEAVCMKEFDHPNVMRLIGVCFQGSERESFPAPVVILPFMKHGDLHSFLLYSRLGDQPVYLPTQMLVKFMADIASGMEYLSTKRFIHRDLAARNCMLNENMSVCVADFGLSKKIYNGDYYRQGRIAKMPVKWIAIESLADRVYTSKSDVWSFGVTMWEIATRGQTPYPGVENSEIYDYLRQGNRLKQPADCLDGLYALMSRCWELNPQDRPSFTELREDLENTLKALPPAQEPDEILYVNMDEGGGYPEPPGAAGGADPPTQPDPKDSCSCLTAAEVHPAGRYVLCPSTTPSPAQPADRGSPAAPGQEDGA
Briefly: FACS Scatchard (apparent KD) on human AXL overexpressing NIH3T3 cells. As for the experimental part: Human AXL overexpression NIH3T3 cells were harvested by incubation with 10 mM EDTA in PBS and resuspended at 6 million cells per ml in FACS buffer (PBS pH 7.4, 3% FCS, 0.1% NaN₃). […] Antibody binding was allowed to proceed for 2 hours on ice. Then, cells were washed twice with 250 μl FACS buffer per well, and resuspended in 200 μl of secondary antibody (anti-rat-PE; Jackson) diluted 1:50 in FACS buffer. After 45 minutes of incubation, cells were again washed twice in FACS buffer and resuspended in […] PBS for FACS analysis. Analysis was carried out on a Beckman-Coulter FACS FC500. To determine the apparent affinity constant KDapp, mean fluorescence values were plotted against the ratio of mean fluorescence and the corresponding antibody concentration ([M]).

B1: ch11B7-IgG2 (antibody, V domains shown)
VH: EVQLQESGPGLVKPSQSLSLTCSVTGYSITSNYWGWIRKFPGDKMEWMGYITYSGSTSYNPSLKSRISITRDTSKNQFFLQLNSVTSEDTATYYCAITTFYYWGQGVMVTVSS
VL: DIQMTQAPSSLPASLGDRVTITCRASQDIGNYLRWFQQKPGKSPRLMISGATNLAAGVPSRFSGSRSGSDYSLTISSLESEDMADYYCLQSKESPWTFGGGTKLELKR
notes: chimeric rat/human IgG2 kappa, expressed in HEK 293 cells; also called chn11B7 IgG2
Regarding B1, the Kd came out at 600 pM.

B2: ch11D5-IgG2 (antibody, V domains shown)
VH: EVQLQESGPGLVKPSQSLSLTCSVTGYSITSNYWGWIRKFPGNKMEWIGHITNSGNTTYNPSLKSRISISRDTSRNQFFLQLNSVTTEDTATYYCAKGAFDYWGQGVMVTVSS
VL: DIQMTQSPSSMSTSLGDRVTITCRASQDIGNYLSWFQQKVGKSPRRMIYGAIKLAVGVPSRFSGSRSGSDYSLTISSLESEDMAIYYCLQYIQFPLTFGSGTKLELKR
notes: chimeric rat/human IgG2 kappa, expressed in HEK 293 cells; also called chn11D5 IgG2
As for B2, the Kd turned out to be 900 pM.
